Our source for the Kd, percent of molecules in the open form (motor domains apart) and percent of molecules in the phi-particle (motor domains self-dimerised) values is article PMC5473941.

Assay [1] concerns the target microtubules polymerised from tubulin (biotinylated, Alexa 647-labelled, taxol-stabilised) (UniProt P02550). The assay can be described thus: single-molecule TIRF microscopy; biotinylated, Alexa 647-labelled, taxol-stabilised microtubules held on PLL-PEG-biotin/streptavidin glass; TMR-dynein at 0.29 and 0.58 nM in TAB (25 mM HEPES pH 7.2, 5 mM MgSO4, 1 mM EGTA, 1 mM DTT) with α-casein, 25 mM KCl and MgATP; room temperature; Kd estimated as Koff (reciprocal of the dwell time) over Kon (binding rate) times 802 binding sites per μm.

For assay [2], the target named is human cytoplasmic dynein-1 heavy chain, wild type, as a subunit of the dynein complex (human) (UniProt Q14204). The assay can be described thus: negative stain EM with 2D classification; dynein at about 0.05 mg/ml in GF150, uranyl acetate; particles sorted into phi, open or ambiguous classes; mean and SEM of 9 draws of 25 micrographs.
The target is the same in assay [3]. The assay can be described thus: electron microscopy of single particles; freshly purified protein produced in insect cells; how the proportion was counted is not told.

Turning to “full-length human cytoplasmic dynein-1 complex with the phi-interface mutations K1610E and R1567E in the heavy chain (from UniProt Q14204 1-4646; Q13409 1-638; O43237 1-492; Q9NP97 1-96; P63167 1-89; P63172 1-113)”, in assay [1], the Kd was 5.22 µM.

With “full-length human cytoplasmic dynein-1 complex, wild type (from UniProt Q14204 1-4646; Q13409 1-638; O43237 1-492; Q9NP97 1-96; P63167 1-89; P63172 1-113)”, the equilibrium dissociation constant (Kd) in assay [1] was 16.4 µM.

With “human cytoplasmic dynein-1 heavy chain, wild type, as a subunit of the dynein complex, Q14204 1-4646”, in assay [2], the percent of molecules in the open form (motor domains apart) came out at 22% and the percent of molecules in the phi-particle (motor domains self-dimerised) stood at 75%. Moreover, the percent of molecules in the phi-particle (motor domains self-dimerised) in assay [3] was more than 85%.

As usually defined, the Kd is the constant that tells how readily two partners part at equilibrium.
